Residue numbers refer to the chain shown, from its start. In names and notes the source's numbering stands.
Tests used:
[1] = target: endogenous calnexin (HEK293T and other human cells) (human) (UniProt P27824); experiment: co-immunoprecipitation from HEK293T cells transfected with HIV-1 molecular clones; IP of endogenous calnexin with anti-CNX antibody, western blot for Nef; reference lane
[2] = target: endogenous calnexin (HEK293T and other human cells) (human) (UniProt P27824); experiment: co-immunoprecipitation from HEK293T cells transfected with HIV-1 molecular clones; IP of endogenous calnexin with anti-CNX antibody, western blot for Nef; relative to the Nef wt lane; no Nef band is visible in this lane
[3] = target: endogenous calnexin (HEK293T and other human cells) (human) (UniProt P27824); experiment: co-immunoprecipitation with endogenous calnexin, HEK293T cells (FIG. 3A)
[4] = target: endogenous calnexin (HEK293T and other human cells) (human) (UniProt P27824); experiment: co-immunoprecipitation with endogenous calnexin, HEK293T cells transfected with mutant HIV-1 NL4-3 clone, immunoblot for Nef
myristoylated NefSF2 = target: T1, myristoylated NefSF2 (HIV-1, UniProt P03407 2-210, myristoylated (site not given)); experiment: SPR, Biacore T-200, CNX-CT amine-coupled on CM5 chip, Nef as analyte, 25 C
T1 construct: Analyte in SPR

[5] = target: T2, HA-tagged calnexin with truncation of the C-terminal cytoplasmic domain (CNXΔ504-586) (human, UniProt P27824 21-592); experiment: co-immunoprecipitation with anti-HA beads from HEK293T lysates, immunoblot for Nef, densitometry
T2 sequence: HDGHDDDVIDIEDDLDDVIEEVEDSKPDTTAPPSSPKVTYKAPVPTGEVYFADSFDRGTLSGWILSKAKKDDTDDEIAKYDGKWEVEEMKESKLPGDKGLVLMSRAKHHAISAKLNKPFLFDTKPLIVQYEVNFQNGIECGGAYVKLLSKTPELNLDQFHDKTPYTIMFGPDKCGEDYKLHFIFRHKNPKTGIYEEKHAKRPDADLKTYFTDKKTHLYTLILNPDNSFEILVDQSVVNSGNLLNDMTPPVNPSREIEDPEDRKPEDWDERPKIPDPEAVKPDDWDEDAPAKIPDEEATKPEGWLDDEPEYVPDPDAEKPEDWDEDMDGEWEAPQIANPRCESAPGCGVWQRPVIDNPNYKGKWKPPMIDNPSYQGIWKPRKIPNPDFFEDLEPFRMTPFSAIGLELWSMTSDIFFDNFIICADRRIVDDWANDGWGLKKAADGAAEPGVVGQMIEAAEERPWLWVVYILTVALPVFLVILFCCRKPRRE

[6] = target: T3, HA-tagged calnexin with deletion of the lumenal repeat segment (CNXΔ276-409) (human, UniProt P27824 21-592); experiment: as above
T3 construct: Made by restriction digest and re-ligation, so junction residues are not known
T3 sequence: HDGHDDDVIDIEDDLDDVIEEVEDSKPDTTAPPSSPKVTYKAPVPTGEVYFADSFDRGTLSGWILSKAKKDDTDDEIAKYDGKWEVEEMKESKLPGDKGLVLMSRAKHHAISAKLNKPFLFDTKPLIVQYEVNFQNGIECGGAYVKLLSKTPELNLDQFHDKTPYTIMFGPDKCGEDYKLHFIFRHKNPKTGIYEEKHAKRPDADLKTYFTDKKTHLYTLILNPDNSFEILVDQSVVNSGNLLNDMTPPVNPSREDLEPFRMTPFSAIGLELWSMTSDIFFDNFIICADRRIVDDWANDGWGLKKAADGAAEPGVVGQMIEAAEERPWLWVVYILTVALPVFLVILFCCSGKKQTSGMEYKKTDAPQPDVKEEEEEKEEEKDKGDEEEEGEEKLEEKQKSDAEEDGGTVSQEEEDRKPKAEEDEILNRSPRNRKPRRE

[7] = target: T4, endogenous calnexin (HEK293T and other human cells) (human, UniProt P27824 21-592); experiment: co-immunoprecipitation with endogenous calnexin, HEK293T cells, densitometry
T4 construct: Endogenous cellular protein, immunoprecipitated with a monoclonal anti-calnexin antibody or co-precipitated with HA-Nef; also called CNX
T4 sequence: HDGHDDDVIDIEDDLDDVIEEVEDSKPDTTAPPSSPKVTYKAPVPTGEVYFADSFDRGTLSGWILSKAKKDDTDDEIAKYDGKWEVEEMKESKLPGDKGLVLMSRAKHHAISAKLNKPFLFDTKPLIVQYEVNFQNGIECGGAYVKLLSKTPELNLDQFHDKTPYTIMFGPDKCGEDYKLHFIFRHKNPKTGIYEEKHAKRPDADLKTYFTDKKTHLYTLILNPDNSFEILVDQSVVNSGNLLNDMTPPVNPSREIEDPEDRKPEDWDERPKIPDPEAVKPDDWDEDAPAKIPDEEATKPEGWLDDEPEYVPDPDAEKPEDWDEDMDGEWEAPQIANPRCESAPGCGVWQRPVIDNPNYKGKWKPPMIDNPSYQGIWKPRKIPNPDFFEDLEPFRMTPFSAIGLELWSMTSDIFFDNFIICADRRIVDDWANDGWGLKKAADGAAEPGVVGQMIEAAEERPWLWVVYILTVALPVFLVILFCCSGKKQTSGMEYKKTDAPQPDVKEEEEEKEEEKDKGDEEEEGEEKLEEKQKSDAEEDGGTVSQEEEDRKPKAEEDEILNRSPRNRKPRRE

[8] = target: T4, endogenous calnexin (HEK293T and other …); experiment: co-immunoprecipitation from HEK293T cells transfected with pcDNA Nef plasmids; IP of endogenous calnexin with anti-CNX antibody, western blot for Nef; relative to the Nef wt lane
[9] = target: T5, ABCA1-FLAG (ATP-binding cassette A1 with FLAG tag) (UniProt O95477 1-2261); experiment: co-immunoprecipitation with ABCA1-FLAG (anti-FLAG beads), HEK293T cells, densitometry
T5 construct: whole, on cells; Immunoprecipitated with anti-FLAG beads from lysates; not shown: FLAG tag

[10] = target: T4, endogenous calnexin (HEK293T and other …); experiment: co-immunoprecipitation with endogenous calnexin (monoclonal anti-calnexin), HEK293T cells, immunoblot for Nef

T5 sequence (O95477 whole entry): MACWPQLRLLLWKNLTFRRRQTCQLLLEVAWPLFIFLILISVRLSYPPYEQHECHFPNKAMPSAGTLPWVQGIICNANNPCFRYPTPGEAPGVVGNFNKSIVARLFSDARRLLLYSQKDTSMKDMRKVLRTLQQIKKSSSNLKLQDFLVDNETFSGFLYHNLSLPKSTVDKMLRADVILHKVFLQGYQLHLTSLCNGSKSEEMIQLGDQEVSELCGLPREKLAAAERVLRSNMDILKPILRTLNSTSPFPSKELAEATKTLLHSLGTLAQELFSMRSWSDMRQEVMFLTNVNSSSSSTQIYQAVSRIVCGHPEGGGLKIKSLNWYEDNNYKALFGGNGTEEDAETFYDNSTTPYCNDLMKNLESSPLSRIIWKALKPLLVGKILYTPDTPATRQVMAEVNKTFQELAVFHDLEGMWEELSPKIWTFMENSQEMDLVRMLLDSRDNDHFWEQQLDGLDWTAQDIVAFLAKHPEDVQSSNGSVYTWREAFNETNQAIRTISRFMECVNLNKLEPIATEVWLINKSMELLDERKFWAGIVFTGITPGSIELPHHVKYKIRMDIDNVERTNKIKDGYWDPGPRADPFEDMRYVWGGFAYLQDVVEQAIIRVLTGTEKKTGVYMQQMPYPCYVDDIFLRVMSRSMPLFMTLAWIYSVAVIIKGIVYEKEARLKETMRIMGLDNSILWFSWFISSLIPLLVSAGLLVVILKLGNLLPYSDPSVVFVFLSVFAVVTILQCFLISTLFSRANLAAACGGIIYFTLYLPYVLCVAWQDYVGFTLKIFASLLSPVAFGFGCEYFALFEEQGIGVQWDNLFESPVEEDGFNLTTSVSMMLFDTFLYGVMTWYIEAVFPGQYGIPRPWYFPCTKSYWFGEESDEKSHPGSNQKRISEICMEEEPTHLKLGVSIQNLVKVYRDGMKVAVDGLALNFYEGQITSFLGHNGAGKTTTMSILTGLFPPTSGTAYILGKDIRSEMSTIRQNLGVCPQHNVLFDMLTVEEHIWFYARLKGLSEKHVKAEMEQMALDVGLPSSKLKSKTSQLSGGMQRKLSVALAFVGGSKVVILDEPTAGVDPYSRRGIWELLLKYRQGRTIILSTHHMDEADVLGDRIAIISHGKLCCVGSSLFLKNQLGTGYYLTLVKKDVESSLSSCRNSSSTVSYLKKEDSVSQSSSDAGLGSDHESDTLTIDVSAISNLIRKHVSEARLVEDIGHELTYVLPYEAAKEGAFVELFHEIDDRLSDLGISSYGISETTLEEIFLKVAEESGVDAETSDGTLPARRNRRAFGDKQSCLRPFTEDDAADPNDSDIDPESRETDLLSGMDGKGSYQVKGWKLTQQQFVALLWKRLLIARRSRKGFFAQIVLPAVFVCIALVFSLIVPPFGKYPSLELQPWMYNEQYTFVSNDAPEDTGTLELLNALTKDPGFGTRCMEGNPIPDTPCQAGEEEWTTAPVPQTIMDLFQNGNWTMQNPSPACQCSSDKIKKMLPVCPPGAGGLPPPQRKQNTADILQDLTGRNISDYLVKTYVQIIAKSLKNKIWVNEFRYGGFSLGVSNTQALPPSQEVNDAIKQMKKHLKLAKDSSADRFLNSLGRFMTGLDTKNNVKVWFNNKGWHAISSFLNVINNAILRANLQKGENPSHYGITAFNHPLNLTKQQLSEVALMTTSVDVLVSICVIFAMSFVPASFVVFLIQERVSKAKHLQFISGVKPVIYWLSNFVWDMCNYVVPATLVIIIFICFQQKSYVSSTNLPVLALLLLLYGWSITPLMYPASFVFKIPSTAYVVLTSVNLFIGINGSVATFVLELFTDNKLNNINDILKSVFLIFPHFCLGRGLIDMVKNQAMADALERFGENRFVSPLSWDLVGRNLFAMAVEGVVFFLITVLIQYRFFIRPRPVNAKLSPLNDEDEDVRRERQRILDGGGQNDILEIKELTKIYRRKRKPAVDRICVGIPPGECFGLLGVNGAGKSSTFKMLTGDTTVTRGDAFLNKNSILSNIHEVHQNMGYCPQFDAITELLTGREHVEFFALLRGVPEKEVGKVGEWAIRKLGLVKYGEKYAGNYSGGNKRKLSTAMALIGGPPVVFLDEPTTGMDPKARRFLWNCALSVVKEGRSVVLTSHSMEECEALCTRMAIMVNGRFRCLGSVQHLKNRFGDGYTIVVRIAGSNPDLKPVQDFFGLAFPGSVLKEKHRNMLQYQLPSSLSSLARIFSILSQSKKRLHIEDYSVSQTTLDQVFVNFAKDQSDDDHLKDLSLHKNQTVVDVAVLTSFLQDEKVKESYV

## HIV-1 NL4-3 Nef, wild type (expressed from HIV-1 NL4-3 molecular clone)
[1]
  relative amount of co-precipitated Nef (gel densitometry): 1

## HIV-1 NL4-3 Nef K4,7A mutant (expressed from mutant HIV-1 NL4-3 clone)
[2]
  relative amount of co-precipitated Nef (gel densitometry): 0.05
[3]
  loss of interaction relative to Nef WT: > 95%
[4]
  reduction of interaction relative to Nef WT: 95%

B1: recombinant calnexin cytoplasmic tail (CNX-CT), N-terminal His-tag and SUMO domain, purified from E. coli (other)
chain: HHHHHHHHCSGKKQTSGMEYKKTDAPQPDVKEEEEEKEEEKDKGDEEEEGEEKLEEKQKSDAEEDGGTVSQEEEDRKPKAEEDEILNRSPRNRKPRRE
notes: also called cytoplasmic tail of CNX; C-terminal (cytoplasmic) domain of CNX
Myristoylated NefSF2
  Kd: 9.4 nM
  koff: 0.00857 s⁻¹
  kon: 908000 M⁻¹ s⁻¹

B2: HIV-1 Nef, BRU isolate, wild type (NefBRU) (other)
chain: GGKWSKSSVVGWPTVRERMRRAEPAADGVGAASRDLEKHGAITSSNTAATNAACAWLEAQEEEEVGFPVTPQVPLRPMTYKAAVDLSHFLKEKGGLEGLIHSQRRQDILDLWIYHTQGYFPDWQNYTPGPGVRYPLTFGWCYKLVPVEPDKVEEANKGENTSLLHPVSLHGMDDPEREVLEWRFDSRLAFHHVARELHPEYFKNC
notes: whole, on cells; also called Nef WT; WT Nef
[5]
  reduction of binding relative to WT calnexin: 70%
[6]
  reduction of binding relative to WT calnexin: 40%

B3: HIV-1 Nef BRU K4A mutant (NefK4A) (other)
chain: B2 chain with K3A
notes: whole, on cells; Expressed in HEK293T cells, co-immunoprecipitated from lysates
[7]
  reduction of interaction relative to WT Nef: 50%
[8]
  relative amount of co-precipitated Nef (gel densitometry): 0.5

B4: HIV-1 Nef BRU K7A mutant (NefK7A) (other)
chain: B2 chain with K6A
notes: as for B3
[7]
  reduction of interaction relative to WT Nef: 90%
[8]
  relative amount of co-precipitated Nef (gel densitometry): 0.1

B5: HIV-1 Nef BRU K4,7A double mutant (NefK4,7A, pcDNA plasmid) (other)
chain: B2 chain with K3A, K6A
notes: as for B3
[9]
  reduction of interaction relative to wild-type Nef: ~30%
[10]
  binding result: no binding
[8]
  relative amount of co-precipitated Nef (gel densitometry): 0.01

Source: patent US10684274 (GEORGE WASHINGTON UNIVERSITY A CONGRESSIONALLY CHARTERED …, dated 2020)
